The record followed here is patent publication US20250154494A1, “Microfluidic Co-Encapsulation Device and System and Methods for Identifying T-Cell Receptor Ligands” (JANSSEN BIOTECH, INC., priority 2021, published 2025).

What all share (type): cell-based
Data set [1] has as its system Jurkat and SKW3 reporter cells. The experiment in a line: Co-culture of TT2-expressing P10-NBV reporter Jurkat and SKW3 cells with cognate minigene-transduced B cells overexpressing Flag-tagged surface receptors. As to conditions: overexpression on minigene-transduced B cells. The text has this: For the purpose of testing the different Flag-tagged surface receptors, InFusion-based cloning (TAKARA) was used to replace the mTagBFP2 reporter with the human codon optimized coding sequence of each candidate surface receptor, N-terminally or C-terminally tagged with a flexible 6× Flag to face the extracellular space. Specifically, the coding region of CD40, CD58, CD80, CD83, CD86, OX40L and 4-1BBL were cloned and tested.
Co-culture experiments were done using round bottom 96 well plates. P10-NBV Jurkat and SKW3 reporter cells and B cells are seeded 1 to 1 ratio into each well. Next day the cells are spun down and stained for Flow cytometry.

The test system of data set [2] is Jurkat cells. The experiment in a line: Droplet co-culture of B and T cells, CD69 surface expression by flow cytometry. To be noted: EDTA without added calcium. Here is the method: One day prior to encapsulation, BOLETH cells were cultured in the presence of cognate or negative control peptides at a final concentration of 1 μM. Cells were collected the next day, centrifuged at 300 g for 5 min, then resuspended in B-cell medium at a final concentration of 1.4×10^7 cells/ml. These were further supplemented with same peptide and with or without EDTA. TCR-expressing Jurkat cells were centrifuged at 300 g and resuspended in B-cell medium at a concentration of 4×10^7 cells/ml. These were then further supplemented with respective concentrations of calcium. BOLETH, Jurkat, and detergent-containing fractions were connected to the microfluidic chip as described. Pressures were applied using an OB1 MK3+ and the droplet emulsion was collected into a 1.5 ml reaction tube containing oil.
Droplets were incubated at 37° C. in a 5% CO2 humidified incubator. Following overnight incubation, droplet emulsions were disrupted by adding two volumes of Pico-Break 1 (SPHERE FLUIDICS). Tubes were quickly inverted several times and centrifuged for 15 s at 300 rpm to facilitate separation of the cell-containing fraction. […] Tubes were centrifuged for 5 min at 300 g and cell pellets were subsequently resuspended in 100 μl of FACS buffer and were analyzed via flow cytometry. […]

Data set [3] concerns T-cells expressing cognate TCR.
In data set [4] the test system is TCR signaling. The experiment in a line: Co-culture of Jurkat reporter cells carrying synthetic promoters with peptide-loaded B cells (GFP / HA reporter). Here is the method:
Sleeping beauty transposon reporter constructs were transfected together with transposases into T cells, 5 to 1 ratio, using the Neon transfection system following the manufacturer's protocol. The voltages used for Jurkat cells were 1350V/[…]/3 pulse, and for SKW-3 cells 1500V, […] and 1 pulse were used as settings. 48-72 hours after transfection, the cells were selected using […] Blasticidin for Jurkat and […] Blasticidin for SKW-3 cells.
Co-culture experiments were performed using round-bottom 96-well plates. P10-NBV Jurkat and SKW-3 reporter cells and B cells were seeded at a 1:1 ratio into each well. For peptide co-culture experiments, either cognate peptide or mismatched peptide is added to each well and incubated for 16 hours. For minigene-based co-culture experiments, minigene-transduced B cells harboring either the cognate of mismatch minigenes were used. Next day the cells are spun down and stained for Flow cytometry.

Data set [5] relates to BOLETH cells. The experiment in a line: Labeling of BOLETH cells with scFv-containing supernatant of transfected HEK293 cells, flow cytometry. To be noted: for signal strength in tandem (T2A) scFv constructs relative to single scFv constructs: αCD19-HA and αCD20-V5 in one expression construct. From the text: Current generation T cell reporter systems consists of a cis-regulatory element comprising multiple copies of a synthetic promoter sequence (‘NBV’). […] The scFv is derived from a monoclonal αCD19-antibody (clone B43) binding to the B cell-specific transmembrane protein CD19, which is commonly used in monoclonal antibody-mediated immunotherapy (Uckun et al., 1988, Blood, 71(1):13-29). It is tagged with six HA epitope tags at its C-terminus, which facilitates its detection by flow cytometry. To optimize the current reporter and B cell labeling strategy, the potential of additional scFvs was tested. In particular, an αCD20-scFv derived from a human monoclonal antibody was evaluated that recognizes an epitope encompassing the membrane-proximal small-loop on the CD20 molecule, known as ofatumumab (clone 2F2) (Teeling et al., 2004, Blood, 104(6):1793-800). In order to test its functionality, scFv constructs were assembled in both the VH-VL and VL-VH configuration. The heavy and light chain domains were separated by a flexible polypeptide linker (G4S)3. To confirm that ofatumumab, as an scFv tagged with four copies of the V5 label, a small epitope-tag found on P and V proteins of the paramyxovirus, can efficiently label BOLETH cells and be detected by flow cytometry, the coding region was inserted into a CMV expression plasmid. HEK293 cells were transfected with the construct using TurboFect. As a negative control, HEK293 cells were transfected with a sfGFP-containing construct. Medium was exchanged 24 hours post-transfection. The scFv-containing supernatant (SN) was collected 72 hours post-transfection and was used to label BOLETH cells. Using fluorescent dye-conjugated antibodies recognizing the tagged scFvs, the amount of B cell bound scFv was measured by flow cytometry (FIG. 8A).
For optimizing scFv reporter constructs, constructs containing combinations of B43 and 2F2 tagged with either HA or V5 were cloned in pTwist CMV WPRE Neo BetaGlobin. For testing, HEK cells were transiently transfected with the plasmids using TurboFect (Fermentas). […]

In the case of “4-1BBL: Flag-tagged surface receptor overexpressed on minigene-transduced B cells; SEQ ID NO:85”, in data set [1], the “minigene-based T cell activation” value was “potentiates minigene-based T cell activation”.

For the molecule `O=C(O)CN(CCN(CC(=O)O)CC(=O)O)CC(=O)O` [EDTA], the “T-cell activation in presence of EDTA (chelation of calcium from the media)” value in data set [2] was “T-cell activation is inhibited”.

Regarding “BT1 construct: minigene expression construct with first transmembrane domain of Bcap31 fused to the minigene N-terminus; SEQ ID NO:116 (DNA AVATFLYAEVFVVLLLCIPFI)”, in data set [3], the “T-cell activation with 400 AA minigene” value is given as “strong T-cell activation even with a 400 AA minigene”; the “stability of T-cell activation over time” value is given as “stable T-cell activation over time”; the “strength of minigene-induced T-cell activation” value is listed as “strong T-cell activation, similar to the positive control”. Moreover, the “presentation of the TetX_400_1 minigene relative to 2B construct” value in data set [3] (TT2 TCR) is “did not improve the presentation”.

B1: OX40L: Flag-tagged surface receptor overexpressed on minigene-transduced B cells; SEQ ID NO:84 (protein)
chain: ERVQPLEENVGNAARPRFERNKLLLVASVIQGLGLLLCFTYICLHFSALQVSHRYPRIQSIKVQFTEYKKEKGFILTSQKEDEIMKVQNNSVIINCDGFYLISLKGYFSQEVNISLHYQKDEEPLFQLKKVRSVNSLMVASLTYKDKVYLNVTTDNTSLDDFHVNGGELILIHQNPGEFCVLGSGAGGSGSGAGGSGDYKDDDDKGAGSGDYKDDDDKGAGSDYKDDDDKGGAGSDYKDDDDKGSGDYKDDDDKGAGSGDYKDDDDKGSGAGGSS
modifications: Flag tag
With B1, the “minigene-based T cell activation” value in data set [1] is reported as “potentiates minigene-based T cell activation”.

B2: P10 promoter: synthetic TCR responsive promoter, SEQ ID NO:60 (nucleic acid)
DNA: AGAGATGGGCTAACAGGTATGAGCATGGGAAAAGCATGTTTCAAGAATTTGAGATGTATTTCCCAGAAAAGGAACATGATGAAAATGGTCAGAAAAGGCATTCTTAGGGTCCCCAGATGTCTGCCTTTTCCATTGATTTTCTTTCCTGGTTAATTGCGAGGCTTGCCTCAAGGTGGAAAACAGTATCGGTTTCCACTGGATCACTAGGTCACAGGGTTTGCCTTTTTCCAAACCTGCATCTCAATTTTACCTATGATTTGCATTAAATAACTTTGGAAAAATTGAAGTTCTTGAGAAGCCACCGCGCCCGGCCTCCTCTCCTTTTCCAAATTTATACATTTTGATTGGTGGGGAGATTCCATTATAGGGGCTGGAAAACCCCTTTACCATACCATGAATGTAACTGTACTGTTACAAAGTGGAAAATAACAGTTTCCACTTTTCGCAGCTCTTTGAGAGCAGGACTCTATTTTCCAGTCTCTTTATAAGCTTCATTCATAGTGAAGCTAACAGAAGTTTTTCCATGGTTAGATTGTGCACCGGGCTGTTTTTAAATGTAATATGATTTTCCATTTACTTATTTATCTTTGTAGTTTTATGACAAAGAAAATTTTCTGAGTTACTTTTGTATCCCCACCCCCTTAAAGAAAGGAGGAAAAACTGTTTCATACAGAAGGCGTTAATTGCA
Consider B2, for which the “GFP and HA reporter gene expression in sleeping beauty constructs” value in data set [4] (sleeping beauty constructs) was “high GFP and HA reporter gene expression”.

B3: αCD19-HA: secreted scFv derived from monoclonal αCD19 antibody clone B43, six HA epitope tags at C-terminus; SEQ ID NO:39 (protein)
scFv: EVQLVQSGAEVKKPGSSVKVSCKASGYAFSSYWMNWVRQAPGQGLEWMGQIWPGDSDTNYAQKFQGRVTITADESTSTAYMELSSLRSEDTAVYYCARRETTTVGRYYYAMDYWGQGTTVTVSSGGGGSGGGGSGGGGSDIQLTQSPSFLSASVGDRVTITCKASQSVDYSGDSYLNWYQQKPGKAPKLLIYDASNLVSGVPSRFSGSGSGTEFTLTISSLQPEDFATYYCQQSTENPWTFGGGTKLEIK
modifications: 6x HA tag
On to B3, for which the “HA MFI, HA-tagged αCD19 scFv compared to HA-tagged αCD20 scFv” value in data set [5] (HEK supernatant staining of B cells) is “higher MFIs”. The “signal strength in tandem (T2A) scFv constructs relative to single scFv constructs” value in data set [5] was “remains unchanged”; in data set [5] (listed as αCD19 scFv), “retains similar binding capacity”.

B4: NBVtf: synthetic transcription factor, fusion of NFAT N-terminus, Bob1 octamer-binding domain and VP16 transactivation domain; SEQ ID NO:76 (protein)
chain: MPSTSFPVPSKFPLGPAAAVFGRGETLGPAPRAGGTMKSAEEEHYGYASSNVSPALPLPTAHSTLPAPCHNLQTSTPGIIPPADHPSGYGAALDGGPAGYFLSSGHTRPDGAPALESPRIEITSCLGLYHNNNQFFHDVEVEDVLPSSKRSPSTATLSLPSLEAYRDPSCLSPASSLSSRSCNSEASSYESNYSYPYASPQTSPWQSPCVSPKTTDPEEGFPRGLGACTLLGSPRHSPSTSPRASVTEESWLGARSSRPASPCNKRKYSLNGRQPPYSPHHSPTPSPHGSPRVSVTDDSWLGNTTQYTSSAIVAAINALTTDSSLDLGDGVPVKSRKTTLEQPPSVALKVEPVGEDLGSPPPPADFAPEDYSSFQHIRKGGFCDQYLAVPQHPYQWAKPKPLSPTSYMSPTLPALDWQLPGSTSGSGKPGSGEGSTKGMLWQKPTAPEQAPAPARPYQGVRVKEPVKELLRRKRGHASSGAAPAPTAVVLPHQPLATYTTVGPSCLDMEGSVSAVTEEAALCAGWLSQPGGGGSGGGGSGGGGSTAPPTDVSLGDELHLDGEDVAMAHADALDDFDLDMLGDGDSPGPGFTPHDSAPYGALDMADFEFEQMFTDALGIDEYGG
With B4, the reporter gene expression entry is listed as “further improves reporter gene expression” in data set [4] (Jurkat-P10NBV-TT2 cells, BOLETH cells loaded with 0.01 μM cognate peptide) and “further improves reporter gene expression” in data set [4] (Jurkat-P10NBV-TT11 cells, BOLETH cells loaded with 0.1 μM cognate peptide).
